# Data as given in the supplement of paper PMC10126150.
# ± gives the standard deviation of the averaged measurements.
# System: ATP
# Test: switch fluorescence ratio, 500 uM ATP over buffer (Cy3 cluster intensity, sum of 5 cycles each) (fold (ratio)); higher = stronger signal-on switching upon ATP binding; sequences stand for … in TCGTCGGCAGCGTCAGATGTGTATAAGAGACAGTTTTTTTTTTTTTTTTTTTTTTTTT…TC
# Conditions: aptamer strand: ATP DNA aptamer (quencher-CACCTGGGGGAGTATTGCGGAGGAAGG + anchor), 100 nM annealed; ATP concentration: 500 uM
# Method in brief: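 Per cluster, summed Cy3 intensity from the target cycles was divided by that from the buffer cycles to give the fluorescence ratio, then averaged per switch-domain sequence. Clusters outside 100-1000 RFU were excluded. The Cy3-labelled switching-strand clusters, on a modified Illumina MiSeq flow-cell, were annealed to 100 nM quencher-labelled ATP aptamer and imaged in selection buffer, then after 15 min with 500 uM ATP at 22 °C, for five cycles with NaOH stripping and re-annealing between them.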
# 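Note: ATP exposure 15 min at 22 °C before imaging.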
sequence,measurement,value
ATTAGCACGT,switch fluorescence ratio,1.023 ± 0.0031
CGTTTGGTAG,switch fluorescence ratio,0.964 ± 0.019
GGGTTCATTG,switch fluorescence ratio,0.974 ± 0.033
ATTTTGGGTG,switch fluorescence ratio,1.08 ± 0.049
TAGGTGCTTT,switch fluorescence ratio,1.079 ± 0.0059
GTAGCAGGGG,switch fluorescence ratio,1.3 ± 0.068
AGAGGGTCCT,switch fluorescence ratio,1.03 ± 0.034
AAACTATAGA,switch fluorescence ratio,1.01 ± 0.054
GTCCCGACTT,switch fluorescence ratio,1.01 ± 0.013
GGCGGGTTGG,switch fluorescence ratio,0.998 ± 0.048
CGAGGCCTCG,switch fluorescence ratio,0.994 ± 0.038
GCGTCGGTGT,switch fluorescence ratio,0.98 ± 0.01
GGGTCATAGT,switch fluorescence ratio,1.012 ± 0.0094
TCGGGAAGGA,switch fluorescence ratio,1.01 ± 0.031
ACTATGGATG,switch fluorescence ratio,1.02 ± 0.036
AGACTCCAAG,switch fluorescence ratio,1 ± 0.059
GGTGGACCGA,switch fluorescence ratio,0.984 ± 0.083
TCGTTTTCCT,switch fluorescence ratio,1.02 ± 0.043
TTAGCTGCGG,switch fluorescence ratio,0.9951 ± 0.0042
TTCATTACCC,switch fluorescence ratio,1.028 ± 0.0082
TTTGTAAATT,switch fluorescence ratio,1 ± 0.018
GAGGTATGTT,switch fluorescence ratio,0.999 ± 0.02
TATACGGCAC,switch fluorescence ratio,2.04 ± 0.14
TTGGAGTATA,switch fluorescence ratio,1.93 ± 0.28
TTTTCGGGGA,switch fluorescence ratio,0.978 ± 0.018
GTGAAATTGT,switch fluorescence ratio,1.01 ± 0.034
GTGTATTGGT,switch fluorescence ratio,0.983 ± 0.024
TCGGTAGTGG,switch fluorescence ratio,1 ± 0.028
TTTGTGTGTT,switch fluorescence ratio,1.02 ± 0.024
GGAGGGCGTG,switch fluorescence ratio,0.988 ± 0.021
TGCACAATCG,switch fluorescence ratio,1.01 ± 0.1
TTAGCTGGCA,switch fluorescence ratio,1 ± 0.027
TCCTGGGTTT,switch fluorescence ratio,1.27 ± 0.48
GCGCAAATTT,switch fluorescence ratio,0.999 ± 0.017
ATAGGTATGC,switch fluorescence ratio,1 ± 0.06
CATAGTTACG,switch fluorescence ratio,0.994 ± 0.047
ATTAAGGTGC,switch fluorescence ratio,1.31 ± 0.075
AACGGGTGCG,switch fluorescence ratio,0.995 ± 0.02
TTCAAGGGGT,switch fluorescence ratio,0.994 ± 0.025
TGTTTTGAGT,switch fluorescence ratio,1.01 ± 0.013
CAACTTCCCC,switch fluorescence ratio,1.22 ± 0.1
AGGTAGTTTT,switch fluorescence ratio,0.982 ± 0.011
GGGTATTTTT,switch fluorescence ratio,0.994 ± 0.014
GCCAGTCTGG,switch fluorescence ratio,0.987 ± 0.025
TTAATATTGT,switch fluorescence ratio,1.029 ± 0.0062
CGTCTATGGG,switch fluorescence ratio,1 ± 0.014
GTAGTTTATG,switch fluorescence ratio,0.996 ± 0.014
GAGTAAGAGC,switch fluorescence ratio,1.017 ± 0.0075
TGGGGGTCGA,switch fluorescence ratio,1.01 ± 0.053
AATTTGGTG,switch fluorescence ratio,1.026 ± 0.0011
AAGGGAATAG,switch fluorescence ratio,1.02 ± 0.014
TTGGAGGGCT,switch fluorescence ratio,0.978 ± 0.0032
TAAGTAGCAG,switch fluorescence ratio,0.997 ± 0.025
ATGGGCGATG,switch fluorescence ratio,1.01 ± 0.055
CTAACCATCT,switch fluorescence ratio,1.028 ± 0.0038
GTGTTTGGGG,switch fluorescence ratio,0.977 ± 0.023
TTAGGGTGGT,switch fluorescence ratio,0.99 ± 0.018
TAAAGGGCGA,switch fluorescence ratio,0.999 ± 0.027
AGGCTGCAG,switch fluorescence ratio,0.961 ± 0.037
TTTGGTGTTG,switch fluorescence ratio,0.987 ± 0.022
TCAGGTGTGA,switch fluorescence ratio,1.27 ± 0.025
ACGGGTTAAT,switch fluorescence ratio,1.01 ± 0.026
TTAGATTCGG,switch fluorescence ratio,0.997 ± 0.039
CTCGTAGCAG,switch fluorescence ratio,1.17 ± 0.013
TGAAATCATA,switch fluorescence ratio,0.996 ± 0.037
AAGTAATAGG,switch fluorescence ratio,1.03 ± 0.019
CTCGGGATGG,switch fluorescence ratio,1.74 ± 0.98
ATTAAATATC,switch fluorescence ratio,1.03 ± 0.024
ATTTTTCAGC,switch fluorescence ratio,1.003 ± 0.0042
AGTAATGGG,switch fluorescence ratio,0.97 ± 0.054
ATTGATGAGT,switch fluorescence ratio,0.993 ± 0.04
AGGTTTGGCT,switch fluorescence ratio,1.01 ± 0.028
AAATGGGTGG,switch fluorescence ratio,0.997 ± 0.025
CGGTTTGTCT,switch fluorescence ratio,0.986 ± 0.018
CGGGAAATTG,switch fluorescence ratio,0.9893 ± 0.0035
TTGGTATTTT,switch fluorescence ratio,0.989 ± 0.018
GGTATTTAAA,switch fluorescence ratio,0.982 ± 0.029
ACCCTTTTAC,switch fluorescence ratio,1.13 ± 0.052
TATGGAGATA,switch fluorescence ratio,0.999 ± 0.013
AGCGAGACGT,switch fluorescence ratio,1.12 ± 0.034
AAGGTGTGCC,switch fluorescence ratio,1.01 ± 0.03
GAAAAAGCAT,switch fluorescence ratio,1 ± 0.016
TGTGGGGTAT,switch fluorescence ratio,1.07 ± 0.045
AGGTGACAGT,switch fluorescence ratio,0.982 ± 0.021
GTGTGGGGAT,switch fluorescence ratio,1 ± 0.044
GGAGGAAGAT,switch fluorescence ratio,1.047 ± 0.0093
TTTCGTTGGT,switch fluorescence ratio,0.982 ± 0.016
TTTAATGAAC,switch fluorescence ratio,1 ± 0.074
CTAACGGTTT,switch fluorescence ratio,0.976 ± 0.028
AAAGCTGCTT,switch fluorescence ratio,0.987 ± 0.024
TAGGGGGACG,switch fluorescence ratio,1.04 ± 0.068
GCGGGGGGCC,switch fluorescence ratio,1.05 ± 0.1
CGCTACTGTT,switch fluorescence ratio,1.079 ± 0.0014
CGCTTTTGCT,switch fluorescence ratio,0.969 ± 0.029
GAGGGGGCGG,switch fluorescence ratio,0.999 ± 0.025
ACGTGCTTAT,switch fluorescence ratio,0.976 ± 0.013
TAAGAGGATC,switch fluorescence ratio,1.0083 ± 6.4e-05
AGGTGTATGT,switch fluorescence ratio,1.01 ± 0.061
TATGGTGTAG,switch fluorescence ratio,1 ± 0.043
AAAAACACTT,switch fluorescence ratio,1.04 ± 0.022
AAAGATCGTG,switch fluorescence ratio,0.974 ± 0.01
TCACGGTGTC,switch fluorescence ratio,1.11 ± 0.026
ACTGTAATTC,switch fluorescence ratio,1.19 ± 0.041
ACTTAAAAAC,switch fluorescence ratio,1.08 ± 0.055
CATGAGTTGT,switch fluorescence ratio,1 ± 0.025
TTAGTTATTT,switch fluorescence ratio,0.999 ± 0.035
ATAGATCCTT,switch fluorescence ratio,0.9996 ± 0.0087
GCATGGTGAC,switch fluorescence ratio,1.058 ± 0.0028
CAGGGGGGG,switch fluorescence ratio,1 ± 0.011
TCCAGGTGTG,switch fluorescence ratio,2.77 ± 0.42
TGCGCAATTT,switch fluorescence ratio,1.205 ± 0.0054
CTCTGTTACA,switch fluorescence ratio,1.04 ± 0.038
AACATTAGGC,switch fluorescence ratio,1.05 ± 0.039
TTCTGTTGAC,switch fluorescence ratio,1.7 ± 0.95
GGGTGGACCT,switch fluorescence ratio,1.13 ± 0.048
TGCTTGTATT,switch fluorescence ratio,1.01 ± 0.027
AACTATGGTC,switch fluorescence ratio,1.01 ± 0.036
TTTTCAAAAA,switch fluorescence ratio,1.13 ± 0.19
TTTGGATTGT,switch fluorescence ratio,1.006 ± 0.0074
TTGTTTTTTT,switch fluorescence ratio,1 ± 0.05
GTTGGCGACG,switch fluorescence ratio,0.946 ± 0.012
GGAATAGATT,switch fluorescence ratio,0.99048 ± 0.00037
AGGATTAGGG,switch fluorescence ratio,1 ± 0.033
TCTTGGGGGG,switch fluorescence ratio,1 ± 0.019
ATGTGACTGG,switch fluorescence ratio,0.986 ± 0.044
TGGTTTGCCG,switch fluorescence ratio,1.01 ± 0.049
TTTTGAACCC,switch fluorescence ratio,0.984 ± 0.08
TCGGGTTCGG,switch fluorescence ratio,0.992 ± 0.032
AAAAAGATGA,switch fluorescence ratio,0.9626 ± 0.0028
AATGTGTTTG,switch fluorescence ratio,0.992 ± 0.042
AAGCTTGTTG,switch fluorescence ratio,0.992 ± 0.038
AATGATGCTT,switch fluorescence ratio,1 ± 0.051
GGGAAAGGAG,switch fluorescence ratio,0.989 ± 0.035
CGAGTTGGAG,switch fluorescence ratio,1.01 ± 0.025
AATGTGGTCG,switch fluorescence ratio,0.983 ± 0.085
TAGATGGTAG,switch fluorescence ratio,0.973 ± 0.016
GCGGGGCTTA,switch fluorescence ratio,0.98878 ± 0.00093
GGACGACCGG,switch fluorescence ratio,1.02 ± 0.027
AGGCGCACGG,switch fluorescence ratio,1.01 ± 0.029
TTTTTTTATG,switch fluorescence ratio,0.989 ± 0.037
CTGAGGGAAA,switch fluorescence ratio,0.988 ± 0.029
AGGGAAACGG,switch fluorescence ratio,0.96 ± 0.018
CATTTTTTGT,switch fluorescence ratio,1.027 ± 0.0052
CACGCATCAG,switch fluorescence ratio,1.137 ± 0.011
GCCTAAAGTT,switch fluorescence ratio,0.988 ± 0.015
GATTGGACTA,switch fluorescence ratio,1 ± 0.035
ATTTGATTGT,switch fluorescence ratio,0.98 ± 0.034
GCGTGTGGTC,switch fluorescence ratio,1.02 ± 0.039
GAGTTGGTAG,switch fluorescence ratio,0.969 ± 0.021
TGAGTTGATT,switch fluorescence ratio,1.01 ± 0.069
GAAGGGTAAT,switch fluorescence ratio,0.9955 ± 0.0036
AATTTGCAGT,switch fluorescence ratio,1.004 ± 0.0043
TCGGGAGAAT,switch fluorescence ratio,1.01 ± 0.015
